# Measured values taken from publication doi:10.1101/2023.11.29.569220, “Spartin-mediated lipid transfer facilitates lipid droplet turnover” (bioRxiv, 2023).
# B1: HsSpartin (human spartin, SPG20) (natural protein, UniProt Q8N0X7 1-666, looked up)
# chain: MEQEPQNGEPAEIKIIREAYKKAFLFVNKGLNTDELGQKEEAKNYYKQGIGHLLRGISISSKESEHTGPGWESARQMQQKMKETLQNVRTRLEILEKGLATSLQNDLQEVPKLYPEFPPKDMCEKLPEPQSFSSAPQHAEVNGNTSTPSAGAVAAPASLSLPSQSCPAEAPPAYTPQAAEGHYTVSYGTDSGEFSSVGEEFYRNHSQPPPLETLGLDADELILIPNGVQIFFVNPAGEVSAPSYPGYLRIVRFLDNSLDTVLNRPPGFLQVCDWLYPLVPDRSPVLKCTAGAYMFPDTMLQAAGCFVGVVLSSELPEDDRELFEDLLRQMSDLRLQANWNRAEEENEFQIPGRTRPSSDQLKEASGTDVKQLDQGNKDVRHKGKRGKRAKDTSSEEVNLSHIVPCEPVPEEKPKELPEWSEKVAHNILSGASWVSWGLVKGAEITGKAIQKGASKLRERIQPEEKPVEVSPAVTKGLYIAKQATGGAAKVSQFLVDGVCTVANCVGKELAPHVKKHGSKLVPESLKKDKDGKSPLDGAMVVAASSVQGFSTVWQGLECAAKCIVNNVSAETVQTVRYKYGYNAGEATHHAVDSAVNVGVTAYNINNIGIKAMVKKTATQTGHTLLEDYQIVDNSQRENQEGAANVNVRGEKDEQTKEVKEAKKKDK
# notes: Spartin (SPG20), human, Uniprot Q8N0X7, full-length; gene synthesized and cloned into pCMV10 with an N-terminal 3xFLAG tag; The Expi293 methods describe only elution with 3xFLAG peptide and no protease step; source: Expi293 cells, purified (anti-FLAG resin); not shown: 3xFLAG, N-terminal, cleaved
# How the values were obtained:
# Experiment in all cases: native gel or EMSA; blue native PAGE, 4%-16% Bis-Tris gel, 4C, 1-2 ug protein purified in buffer A (50 mM HEPES, 500 mM NaCl, pH 8.0, 1 mM TCEP, 10% glycerol); migration according to MW against NativeMark standards
# [1] = target: CeSpartin (C. elegans spartin) (C. elegans)
# [2] = target: CtSpartinL (spartin-like protein from Chaetomium thermophilum) (Chaetomium thermophilum)
# [3] = target: the molecule itself
molecule,measurement,setting,value
CeSpartin (C. elegans spartin) (natural protein),stoichiometry N,[1],3
CtSpartinL (spartin-like protein from Chaetomium thermophilum) (natural protein),stoichiometry N,[2],3
B1,stoichiometry N,[3],~3
